According to patent publication US20200399314A1 (MEDIKINE, published 2020):

T1: human IL-2Rα subunit (human, UniProt P01589 22-213, limits assumed)
T1 construct: also called CD25
T1 sequence (looked up): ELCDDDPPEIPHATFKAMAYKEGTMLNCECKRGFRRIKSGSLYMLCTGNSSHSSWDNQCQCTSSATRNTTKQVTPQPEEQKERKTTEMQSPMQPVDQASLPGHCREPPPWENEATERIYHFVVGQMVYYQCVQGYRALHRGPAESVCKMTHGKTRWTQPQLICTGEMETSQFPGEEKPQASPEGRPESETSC


Target: T1, human IL-2Rα subunit

IC50 | Binder
< 100 µM | RLFCLMNPGPPDCWIY [SEQ ID NO 134]
< 100 µM | KSWCFDHPGYPICQFY [SEQ ID NO 133]

Continued, binder first:

Binder | IC50
GLRCYFDPGSQICTFL [SEQ ID NO 129] | < 100 µM
KLWCQNNPGNSICDMY [SEQ ID NO 132] | < 100 µM
GQRCTYDPGQDACVFS [SEQ ID NO 130] | < 100 µM
GSRCYWDPGREVCIFK [SEQ ID NO 131] | < 100 µM
